Assay results from patent US20140322130A1 (published 2014).
Where no end group is shown, it is not given here.

Molecular target: T1, 15N-labelled recombinant EGFR287-302 peptide with methionine mutated to leucine (human, also: 15N-labelled, oxidized)
T1 construct: cleaved from an SH2 fusion with CNBr; also called 15N-labelled peptide
T1 peptide: CGADSYELEEDGVRKC
Assay: NMR, 15N HSQC

binding result: binds
B1: Fab fragment of mAb806 (Fab, V domains shown)
VH: DVQLQESGPSLVKPSQSLSLTCTVTGYSITSDFAWNWIRQFPGNKLEWMGYISYSGNTRYNPSLKSRISITRDTSKNQFFLQLNSVTIEDTATYYCVTAGRGFPYWGQGTLVTVSA
VL: DILMTQSPSSMSVSLGDTVSITCHSSQDINSNIGWLQQRPGKSFKGLIYHGTNLDDEVPSRFSGSGSGADYSLTISSLESEDFADYYCVQYAQFPWTFGGGTKLEIKR
notes: papain Fab of the intact mAb; also called Fab806
